From US20230272056A1 (Merck Sharp & Dohme, published 2023)
Where “and” joins values, the source holds several entries; their conditions need not be identical. Equal values may be shown once. Read-outs that look alike come from different tables or passages of the source.

What was measured:
[1] = target: T1, human LAP-TGFB2 Fc fusion (human); assay: SPR
T1 construct: also called human LAP-TGFβ2; LAP-TGFβ isoform 2
Method: (§1) A Series S CM4 sensor chip (GE Healthcare, catalog BR100534) was immobilized with an anti-human Fc capture antibody following the kit protocol (GE Healthcare, catalog BR100839) on a Biacore T200 instrument with 1× HBS-EP+ (Teknova, catalog H8022). […] Binding specificity between human LAP-TGFβ isoforms 2 and 3 and the tyrosine scanning double mutants were performed in 1× HEPES-buffered saline with EDTA and surfactant (HBS)-EP)+with 0.1 mg/mL BSA at 25° C. […] The binding data were double referenced by subtraction of signal from a reference (capture surface only) flow cell and the negative control 0 nM Fab injection. Binding rate constants were determined by fitting the data with a 1:1 binding model (GE Healthcare Biacore T200 Evaluation software 3.0).

[2] = target: T2, human LAP-TGFB3 Fc fusion (human); assay: SPR
T2 construct: also called human LAP-TGFβ3; LAP-TGFβ isoform 3
Method: as §1

[3] = target: T3, human LAP-TGFB1 Fc fusion (human); assay: SPR
T3 construct: also called human LAP-TGFβ1-Fc; human LAP-TGFβ-Fc isoform 1

[4] = target: T3, human LAP-TGFB1 Fc fusion; assay: BLI off-rate screen
Method: (§2) The Fab mutants including a positive control, 20E6 Fab, and a negative control Fab (Molecular Innovations, catalog HU-FAB-4510) were diluted to 200 nM in assay buffer and loaded to FAB2G sensors for 180 seconds followed by a one-hour incubation at room temperature in assay buffer to equilibrate the tips. The Fab loaded sensors were assessed for binding with 100 nM human LAP-TGFβ for 180 seconds followed by a 180 second dissociation phase in assay buffer on a ForteBio HTX (software version 9.0.0.66). Non-specific binding to the negative control Fab was subtracted and the binding sensorgrams were aligned to the start of the association phase on the X and Y axis. The Fab binding was fit with the 1:1 binding model, dissociation phase only, with local fitting using ForteBio Data Analysis 9.0 software.

[5] = target: T3, human LAP-TGFB1 Fc fusion; assay: BLI off-rate screen; remark: listed apart in the source
Method: as §2
Twenty-three variants containing a single tyrosine substitution in the light chain CDRs (at one of amino acid positions 24-31, 33, 34, 51-56, and 89-95 according to Kabat numbering scheme) and 21 similar heavy chain CDR variants (at amino acids positions 28-31, 33-35, 50-58 including 52a, 95, 96, 98, and 99 according to Kabat numbering scheme) were generated according to FIG. 1 and listed in Table 6 and their interactions with human LAP-TGFb1 were analyzed by ForteBio interferometry. […] In those sequences the VL is correct, even though these sequences are from the heavy chain. Thus, the VL_X ##Y refers to the position of the tyrosine mutation within the antibody, regardless of whether the sequence is a heavy or light chain.

[6] = target: T3, human LAP-TGFB1 Fc fusion; assay: SPR, antigen-Fc captured, Fab analyte
[7] = target: T3, human LAP-TGFB1 Fc fusion; assay: SPR, antigen-Fc captured, Fab analyte; remark: listed apart in the source
Description: (§3) This Example describes the isoform specificity of the yeast display mutants to bind to human LAP-TGFβ isoforms 1, 2, and 3 using surface plasmon resonance. A Series S CM4 sensor chip (GE Healthcare, catalog BR100534) was immobilized with an anti-human Fc capture antibody following the kit protocol (GE Healthcare, catalog BR100839) on a Biacore T200 instrument with 1× HBS-EP+ (Teknova, catalog H8022). […] Binding specificity experiments between human LAP-TGFβ isoforms 2 and 3 and yeast display mutants were performed in 1× HBS-EP+ with 0.1 mg/mL BSA at 25° C. Approximately 20-40 RU amounts of human LAP-TGFβ2 and 3 were captured to the anti-human Fc surface followed by injection of 1000 nM Fab including a negative control 0 nM Fab. The binding data were double referenced by subtraction of signal from a reference (capture surface only) flow cell and the negative control 0 nM Fab injection. Binding rate constants were determined by fitting the data with a 1:1 binding model (GE Healthcare Biacore T200 Evaluation software 3.0).

[8] = target: T3, human LAP-TGFB1 Fc fusion; assay: SPR pH 7.4, antigen-Fc captured, Fab analyte
[9] = target: T3, human LAP-TGFB1 Fc fusion; assay: SPR pH 6.0, antigen-Fc captured, Fab analyte
Method: A Series S CM4 sensor chip (Cytiva, catalog BR100534) was immobilized with an anti-human Fc capture antibody following the kit protocol (Cytiva, catalog BR100839) on a Biacore T200 instrument with 1× HBS-EP+ (Teknova, catalog H8022). […] The binding data were double referenced by subtraction of signal from a reference (capture surface only) flow cell and the 0 nM Fab injection. Binding rate constants were determined by fitting the data with a 1:1 binding model (Cytiva Biacore T200 Evaluation software 3.0).

[10] = target: T3, human LAP-TGFB1 Fc fusion; assay: SPR pH 7.4, antigen-Fc captured, Fab analyte; remark: listed apart in the source
[11] = target: T1, human LAP-TGFB2 Fc fusion; assay: SPR; remark: listed apart in the source
Description: as §3

[12] = target: T2, human LAP-TGFB3 Fc fusion; assay: SPR; remark: listed apart in the source
Description: as §3

[13] = target: T4, human LAP-TGFβ1 (construct not stated) (human, UniProt P01137 30-390); assay: KinExA, Fab as constant binding partner
T4 construct: also called human LAP-TGFβ isoform 1; titrant
Method: An orthogonal kinetic exclusion assay (KinExA) method was used in this study to measure the affinity of an affinity-matured anti-LAP-TGF β1 Fab 69BJN (referred to as the constant binding partner, CBP) and human LAP-TGFβ1 (referred to as the titrant). […] Two equilibrium experiments were prepared in assay buffer (1× PBS, 1 mg/mL BSA, and 0.05% NaN₃) with 5 pM or 100 pM of 69BJN as CBP followed by mixing and equilibrating with 1:10 serially diluted human LAP-TGFβ1 from 10 nM to 1 pM including a negative control 0 nM. The KinExA method was performed as follows: PMMA beads were loaded into the flow cell, a single concentration of titrant human LAP-TGFβ1 at equilibrium with 69BJN CBP was flowed over the flow cell, free CBP bound by PMMA beads was detected with rabbit anti-human IgG, F(ab′)₂ fragment specific-647 conjugate (Jackson Immunoresearch, catalog 309-005-006). This method was repeated in duplicate over the entire concentration series for each of the two different equilibrium series. The binding signals were analyzed with KinExA Pro software (version 4.4.26) where the free CBP binding signals were converted into percent free response and plotted against the titrant concentration series. The equilibrium KD was determined by using the titrant concentration as a reference and calculating percent activity of the ligand (CBP).

T2 sequence (chain, as listed by the source limits assumed): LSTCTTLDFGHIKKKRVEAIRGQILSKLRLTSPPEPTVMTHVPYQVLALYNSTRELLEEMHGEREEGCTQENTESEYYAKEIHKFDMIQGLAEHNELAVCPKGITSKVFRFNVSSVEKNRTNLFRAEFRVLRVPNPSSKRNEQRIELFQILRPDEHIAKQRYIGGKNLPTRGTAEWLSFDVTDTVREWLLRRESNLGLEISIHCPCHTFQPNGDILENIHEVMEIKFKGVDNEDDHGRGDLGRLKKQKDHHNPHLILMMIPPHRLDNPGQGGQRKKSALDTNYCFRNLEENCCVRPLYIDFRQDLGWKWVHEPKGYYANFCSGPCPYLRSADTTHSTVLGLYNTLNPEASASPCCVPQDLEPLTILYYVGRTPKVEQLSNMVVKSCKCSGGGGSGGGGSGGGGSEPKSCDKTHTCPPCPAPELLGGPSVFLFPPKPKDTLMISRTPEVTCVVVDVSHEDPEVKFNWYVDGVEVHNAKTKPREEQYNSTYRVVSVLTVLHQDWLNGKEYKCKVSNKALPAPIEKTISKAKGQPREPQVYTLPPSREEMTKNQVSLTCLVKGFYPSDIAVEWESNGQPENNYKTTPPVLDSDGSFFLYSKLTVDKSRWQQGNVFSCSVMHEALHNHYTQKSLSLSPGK
T1 sequence (chain, as listed by the source limits assumed): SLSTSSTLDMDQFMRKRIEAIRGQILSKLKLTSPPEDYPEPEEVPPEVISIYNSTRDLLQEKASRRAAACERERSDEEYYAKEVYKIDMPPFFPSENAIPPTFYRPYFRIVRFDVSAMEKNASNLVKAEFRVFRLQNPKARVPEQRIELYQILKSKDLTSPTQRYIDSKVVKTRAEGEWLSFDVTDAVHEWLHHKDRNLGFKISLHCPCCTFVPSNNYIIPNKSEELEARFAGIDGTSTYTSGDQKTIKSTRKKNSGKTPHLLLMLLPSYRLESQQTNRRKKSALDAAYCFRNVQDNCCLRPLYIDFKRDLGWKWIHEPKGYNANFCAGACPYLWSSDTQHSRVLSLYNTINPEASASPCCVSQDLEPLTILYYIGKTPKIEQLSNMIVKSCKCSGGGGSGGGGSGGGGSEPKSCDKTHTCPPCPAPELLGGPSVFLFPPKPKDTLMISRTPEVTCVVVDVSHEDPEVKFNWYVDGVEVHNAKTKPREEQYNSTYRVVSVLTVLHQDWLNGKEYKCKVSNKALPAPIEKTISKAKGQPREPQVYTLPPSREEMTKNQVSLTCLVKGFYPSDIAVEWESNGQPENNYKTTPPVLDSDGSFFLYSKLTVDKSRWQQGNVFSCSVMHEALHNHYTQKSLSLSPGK
T3 sequence (chain, as listed by the source limits assumed): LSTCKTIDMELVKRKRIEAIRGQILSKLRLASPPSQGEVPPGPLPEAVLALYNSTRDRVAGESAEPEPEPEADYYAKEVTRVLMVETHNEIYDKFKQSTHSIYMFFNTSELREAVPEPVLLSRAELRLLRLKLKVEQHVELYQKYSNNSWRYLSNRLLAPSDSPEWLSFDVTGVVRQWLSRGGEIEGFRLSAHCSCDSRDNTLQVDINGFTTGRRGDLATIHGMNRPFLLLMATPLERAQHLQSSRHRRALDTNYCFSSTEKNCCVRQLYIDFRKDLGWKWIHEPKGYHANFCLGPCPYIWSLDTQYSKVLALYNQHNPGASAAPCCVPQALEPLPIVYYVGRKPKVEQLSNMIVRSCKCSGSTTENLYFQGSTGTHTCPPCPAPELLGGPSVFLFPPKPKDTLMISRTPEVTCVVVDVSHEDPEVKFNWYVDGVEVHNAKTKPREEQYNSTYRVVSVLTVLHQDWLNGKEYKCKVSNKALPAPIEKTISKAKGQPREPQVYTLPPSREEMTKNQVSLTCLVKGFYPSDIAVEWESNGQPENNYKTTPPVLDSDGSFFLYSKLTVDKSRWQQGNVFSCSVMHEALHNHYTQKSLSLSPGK
T4 sequence (P01137 30-390 limits assumed): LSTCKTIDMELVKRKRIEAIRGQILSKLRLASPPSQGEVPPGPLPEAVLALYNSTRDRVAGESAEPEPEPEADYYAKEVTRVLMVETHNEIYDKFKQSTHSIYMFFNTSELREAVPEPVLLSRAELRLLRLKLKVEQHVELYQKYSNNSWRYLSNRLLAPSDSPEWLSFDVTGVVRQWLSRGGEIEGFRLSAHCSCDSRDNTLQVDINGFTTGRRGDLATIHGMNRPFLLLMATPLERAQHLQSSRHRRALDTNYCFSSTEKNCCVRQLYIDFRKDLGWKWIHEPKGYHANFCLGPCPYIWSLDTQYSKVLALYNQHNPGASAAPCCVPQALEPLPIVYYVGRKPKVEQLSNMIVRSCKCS

Binder	binding result [1]	binding result [2]	Fold improvement in KD [6] [fold]	Kd [6] [nM]	koff [6] [s⁻¹]	kon [6] [M⁻¹ s⁻¹]	Fold improvement in KD [7] [fold]	Kd [7] [nM]	koff [7] [s⁻¹]	kon [7] [M⁻¹ s⁻¹]	also measured
20E6 Fab (80BGJ/85BIT) (Fab, V domains shown, also called 20E6 (80BGJ); 20E6 (85BIT)) VH: EVQLVQSGAEVKKPGASVKVSCKASGYTFTSYWMHWVRQAPGQGLEWMGRIDPQSGGIKYAQKFQGRATLTVDTSTSTAYMELSRLRSDDTAVYYCARWDYGGYFDVWGQGTLVTVSS VL: DIQMTQSPSSLSASVGDRVTITCRASQDITNYLNWYQQKPGKAVKLLIYYTSRLHSGVPSRFSGSGSGTDYTLTISSLQPEDFATYFCQQGDTLPWTFGQGTKLEIKR	no binding (tested: 1000 nM Fab)	no binding (tested: 1000 nM Fab)	1	81.2	0.103	1.45e+06	1	79.9	0.0769	960000	Fold change in KD from pH 7.4 to pH 6 [3]: 1.8 fold; koff [4]: 0.0468 s⁻¹ and 0.0381 s⁻¹; koff [5]: 0.0468 s⁻¹ and 0.0381 s⁻¹; Fold improvement in KD [8]: 1 fold; Kd [8]: 58.5 nM; koff [8]: 0.0769 s⁻¹; kon [8]: 1.32e+06 M⁻¹ s⁻¹; Kd [9]: 103 nM; koff [9]: 0.096 s⁻¹; kon [9]: 934000 M⁻¹ s⁻¹; Kd [10]: 58.5 nM; koff [10]: 0.0769 s⁻¹; kon [10]: 1.32e+06 M⁻¹ s⁻¹
69BJN (Fab, V domains shown, also called VH W33D I58T / VL T30Y R53V (69BJN)) VH: EVQLVQSGAEVKKPGASVKVSCKASGYTFTSYDMHWVRQAPGQGLEWMGRIDPQSGGTKYAQKFQGRATLTVDTSTSTAYMELSRLRSDDTAVYYCARWDYGGYFDVWGQGTLVTVSS VL: DIQMTQSPSSLSASVGDRVTITCRASQDIYNYLNWYQQKPGKAVKLLIYYTSVLHSGVPSRFSGSGSGTDYTLTISSLQPEDFATYFCQQGDTLPWTFGQGTKLEIKR							695	0.115	0.000488	4.25e+06	binding result [11]: no binding (tested: 1000 nM Fab); binding result [12]: no binding (tested: 1000 nM Fab); Kd [13]: 0.028 nM
VH W33Y/VL R53Y (91BJM) (Fab, V domains shown, also called VH33/VL53) VH: EVQLVQSGAEVKKPGASVKVSCKASGYTFTSYYMHWVRQAPGQGLEWMGRIDPQSGGIKYAQKFQGRATLTVDTSTSTAYMELSRLRSDDTAVYYCARWDYGGYFDVWGQGTLVTVSS VL: DIQMTQSPSSLSASVGDRVTITCRASQDITNYLNWYQQKPGKAVKLLIYYTSYLHSGVPSRFSGSGSGTDYTLTISSLQPEDFATYFCQQGDTLPWTFGQGTKLEIKR	no binding (tested: 1000 nM Fab)	no binding (tested: 1000 nM Fab)	7	11.8	0.0154	910000					
VH W33Y/VL T30Y (90BJM) (Fab, V domains shown, also called VH33/VL30) VH: EVQLVQSGAEVKKPGASVKVSCKASGYTFTSYYMHWVRQAPGQGLEWMGRIDPQSGGIKYAQKFQGRATLTVDTSTSTAYMELSRLRSDDTAVYYCARWDYGGYFDVWGQGTLVTVSS VL: DIQMTQSPSSLSASVGDRVTITCRASQDIYNYLNWYQQKPGKAVKLLIYYTSRLHSGVPSRFSGSGSGTDYTLTISSLQPEDFATYFCQQGDTLPWTFGQGTKLEIKR	no binding (tested: 1000 nM Fab)	no binding (tested: 1000 nM Fab)	20	4	0.0075	1.89e+06					
VH W33Y/VL T93Y (92BJM) (Fab, V domains shown, also called VH33/VL93) VH: EVQLVQSGAEVKKPGASVKVSCKASGYTFTSYYMHWVRQAPGQGLEWMGRIDPQSGGIKYAQKFQGRATLTVDTSTSTAYMELSRLRSDDTAVYYCARWDYGGYFDVWGQGTLVTVSS VL: DIQMTQSPSSLSASVGDRVTITCRASQDITNYLNWYQQKPGKAVKLLIYYTSRLHSGVPSRFSGSGSGTDYTLTISSLQPEDFATYFCQQGDYLPWTFGQGTKLEIKR	no binding (tested: 1000 nM Fab)	no binding (tested: 1000 nM Fab)	4	20.6	0.0134	650000					
